Source: the DeepSol protein solubility set

test: soluble on expression in E. coli; label from the status in PepcDB or PDB records

| Sequence | soluble on expression in E. coli |
| --- | --- |
| MPATPVPPVTMPPVPPVGFPPVTAPPGLHPPPPVPPVPVPTLPVTSEHKTAHDACIKRLEQLEIPPDPKIYPSPTEPGTFGSVTEVLTNVFGVEVHKTSNFYQYSVHITAELSSKKEVTFTKKGKEDFIVHDRHEKCSAILFHALNRFEDFFKSSENCIIYDGQSILFTSMNLFEGIPTGKIKTKVFQINGADTNLKDLMVLPCIKLEVFPTKNPVVNFSLEDIGRRTSDSNIESVNMAYKQILDLAMSQYAIRETSKCVVFEHGKMFFINPLQEGYAPCDIVEVGDGKQMKPGLKKTLQFIEGPYGRNQNNPSIVIDGMKVAFHMEQLVFQKLSSITSNLANGITGSERERCAAVIKGLDCHSNYRGRTRHHKIESIHHEGAATARFELEGGGTCTVATYFKDKYKIQLRYPNANLIVCKERGALNFYPMELITISPNQRVRITQQTSSQSQRTTKESAVLPDIRQRLIMTGKIAAKITAENEVLGKMGVTVCDEPLVVKGRNLPAIRLASFETGEHLINPRDCKWRPQRYNRSAVAPKVWALYGVGSPGSQMNRDVMRRFCDEFMNMSRSKGILFPPPGDVNLLTPDAIENRLREAANAGCTFVLCITEDNITCLHQKYKFIEHHTQMIVQDMKLSKALSVVNASKKLTLENVINKTNVKLGGSNYVYLDTKNFLQEHLIIGVGISSPPPGTKYIMESRGILNPTIVGFAYNGNGKQEFSGDFVLNAAGQETIAPIEDIVSYSIKGYKKFHDGKAPKRITIYRSGSSEGNHGPIISYEVPLARVAMRNFSPDTQLLYIVVSKEHTYRFFKKESGGSSSGGSNSAGASNSGTLTSAPPKPWELNIGPGLTVDYGVTNPACKQFFLNSHMTLQGSAKTPLYTVLADDRNIGMSALEEFTFNLCHLHQIVGLPTSIPTPLYVANEYAKRGRNLWNEAINANEIPEVTGPESARLKKMTDGISYMGSGDMIDRRVNA | not soluble |
| MTLSRVSEMALSPDGKTAVYAVSFPDVKTNKATRELFTVNLDGSGRKQITDTESNEYAPAWMADGKRIAFMSNEGGSMQLWVMNADGTERRQLSNIEGGITGFLFSPDEKQVLFTKDIKFGKRTKDIYPDLDKATGRIITDLMYKHWDEWVETIPHPFIANATDGMITTGKDIMEGEPYEAPMKPWSGIEDFSWSPDGQNIAYASRKKTGMAYSLSTNSDIYIYNLASGRTHNISEGMMGYDTYPKFSPDGKSIAWISMERDGYESDLKRLFVADLATGKRTHVNPTFDYNVDMIQWAPDSKGIYFLACKEAETNLWEITLKTGKIRQITQGQHDYADFSVRNDVMLAKRHSFELPDDLYRVNLKNGAAQAVTAENKVILDRLTPITCEKRWMKTTDGGNMLTWVVLPPNFDKNKKYPAILYCQGGPQNTVSQFWSFRWNLRLMAEQGYIVIAPNRHGVPGFGQKWNEQISGDYGGQNMRDYLTAVDEMKKEPYVDGDRIGAVGASYGGFSVYWLAGHHDKRFAAFIAHAGIFNLEMQYATTEEMWFANWDIGGPFWEKDNVVAQRTYATSPHKFVQNWDTPILMIHGELDFRILASQAMAAFDAAQLRGVPSEMLIYPDENHWVLQPQNALLFHRTFFGWLDRWLKK | not soluble |
| GSFTMADLDDIKDGKDFRTDQPQKNIPFTLKGCGALDWGMQSRLSRIFNPKTGKTVMLAFDHGYFQGPTTGLERIDINIAPLFEHADVLMCTRGILRSVVPPATNRPVVLRASGANSILAELSNEAVALSMDDAVRLNSCAVAAQVYIGSEYEHQSIKNIIQLVDAGMKVGMPTMAVTGVGKDMVRDQRYFSLATRIAAEMGAQIIKTYYVEKGFERIVAGCPVPIVIAGGKKLPEREALEMCWQAIDQGASGVDMGRNIFQSDHPVAMMKAVQAVVHHNETADRAYELYLSEKQ | soluble |
| MDLTVEPNLHSLITSTTHKWIFVGGKGGVGKTTSSCSIAIQMALSQPNKQFLLISTDPAHNLSDAFGEKFGKDARKVTGMNNLSCMEIDPSAALKDMNDMAVSRANNNGSDGQGDDLGSLLQGGALADLTGSIPGIDEALSFMEVMKHIKRQEQGEGETFDTVIFDTAPTGHTLRFLQLPNTLSKLLEKFGEITNKLGPMLNSFMGAGNVDISGKLNELKANVETIRQQFTDPDLTTFVCVCISEFLSLYETERLIQELISYDMDVNSIIVNQLLFAENDQEHNCKRCQARWKMQKKYLDQIDELYEDFHVVKMPLCAGEIRGLNNLTKFSQFLNKEYNPITDGKVIYELEDKEGLVPRGSLEHHHHHH | soluble |
| GPGSMTEKPAKEPPLPRDLKAQFDVLAGTRWDGVGDDADAAEQLSQLRQEWKALGNACYGKGYFLAAIRCYSRLLEVPGGDTAQIRSNRSAAYLQSPMLVGPSLALKDAEKAVELDPQWFKAHLRVGDAHRKRGHFAEAEAAYREALARQPECATALAGLRALQVESAGLPAAAATFPRGHAERTPYHNAPPSPRSLSSRTTAHAVAVAQAKEEELQLTQEQLVHKWKADISTREGRTGCRPRQASLSQADRQHGAAIKQALLARFRDKLESNGEFSAILRNRCEEAMLRGEGINYRDADKLRNTYSHATNGIGLGISSDAYKEYTGRVDHRTW | soluble |
| MKRNLLSSAIIVAIMSLGLTGCDDKKAETETLPPANSQPAAPAPEAKPTEAPVAKAEAKPETPAQPVVDEQAVFDEKMDVYIKCYNKLQIPVQRSLARYADWLKDFKQGPTGEERTVYGIYGISESNLAECEKGVKSAVALTPALQPIDGVAVSYIDAAVALGNTINEMDKYYTQENYKDDAFAKGKTLHQTFLKNLEAFEPVAESYHAAIQEINDKRQLAELKNIEEREGKTFHYYSLAVMISAKQINNLISQDKFDAEAAMKKVSELETLVAQAKEADKGGMNFSFINSAGQYQLEAKKYVRRIRDKVPYSDWDKEQLQDANSSWMVEDSFPRALREYNEMVDDYNSLR | soluble |
| MSSTECYGAPPHNYYQDWPTTHSYYPSVPSSYSPLNHHPADIWAAHPSNYIMGNGHVSPPATASGLSPPASRSSNSSAELPTGVTASQHNTYKWMHTKRSQRPAAPKKKVIDENGTNRTNFTTHQLTELEKEFHTAKYVNRTRRTEIASNLKLQEAQVKIWFQNRRMKEKKREKEKAFLARNTWESNSPTSSCSGEDVKNFK | not soluble |
| MAHHHHHHMPLIEAHLPALRPYIRYPVVAATGSFDVGRLQQYATVCPATYVIETITEALAELTRRMKWSFDLCGNFRDAADFAARGISFVALERATGNIAAGASSFCICDGGVEVGVETAESHQRRGLALACSARLILERLKHGLYPNWDAHVPHSAHLAEKLGYTRGTPYKAYVDELQT | not soluble |
| DHVLLITGGTRGIGLLCARHFAECYGVKKLVLTGREQLPPREEWARFKTSNTSLAEKIQAVRELEAKGVQVEMLSLTLSDDAQVEQTLQHIKRTLGPIGGVIHCAGLTDMDTLAFIRKTSDDIQRVLEPKVSGLTTLYRHVCNEPLQFFVLFSSVSAIIPELSAGQADYAMANSYMDYFAEAHQKHAPIISVQWPNWKETGMGEVTNQAYRDSGLLSITNSEGLRFLDQIVSKKFGPVVLPAMANQTNWEPELLMK | soluble |
| MGSDKIHHHHHHMKIAISGKGGVGKTTLAATLAYLFARDGYRVTAIDCDADINLPSALGVKEKPKPLSELHEIIEKRVVGPMGTYKLNPKVDDVFEEYSVYNEDGVRVLVLGTIEKGGEGCFCPENAFLRAILRHAIFKREDVLILDMEAGIEHLGRGTARGVDLLIAVVEPGTRAVETLERIEKLGRDIGIERIAVVVNKFIESERARELISGIKYPILGVIHYDQCFVRADLENVPPYTVCDLKPFEEIKRRIEEFVQ | not soluble |
| MLKGHLHSVESLGTVDGPGLRYILFTQGCLLRCLYCHNPDTWKISEPSREVTVDEMVNEILPYKPYFDASGGGVTVSGGEPLLQMPFLEKLFAELKENGVHTCLDTSAGCANDTKAFQRHFEELQKHTDLILLDIKHIDNDKHIRLTGKPNTHILNFARKLSDMKQPVWIRHVLVPGYSDDKDDLIKLGEFINSLDNVEKFEILPYHQLGVHKWKTLGIAYELEDVEAPDDEAVKAAYRYVNFKGKIPVEL | not soluble |
| MSLGQDGFRLADYIREHVENGDKLVIRVSYHNTSLGFANPMREGVEKAKRELGVDAELIGPANGSAQEQVSELQTLISQQKVDGLAVSSASNDALKPVIAQAYNAGIPIISFNTNNPGSKQMAFVGQDLVQSGRFEAEQLRKELGDRKGKVVVFSVDTGAGWSNDRFSGFEAGMEGAEGIQIEGPINSGNEPRQAFNAVQNTMTANPDAIAIASLDCCSVDAAAKWVQQNGKKGEIIVVGFDVLPQTADFIRNGVIQFTISQNPVEQGYQSVKILNDFLKKNKPLRDVNTGTKLVDKSNIDEVPLEEGHHHHHH | soluble |
